Assay results taken from patent US20110129412A1.

Assays:
human CD20 (human) [1] = biological target: human CD20 (human) (UniProt P11836); experiment: FACS titration on SB cells expressing CD20, 3 h at 4 C, nonlinear fit of geometric mean fluorescence
human CD20 (human) [2] = biological target: human CD20 (human) (UniProt P11836); experiment: cell-based or functional assay

Sequence of human CD20 (human) (P11836 whole entry): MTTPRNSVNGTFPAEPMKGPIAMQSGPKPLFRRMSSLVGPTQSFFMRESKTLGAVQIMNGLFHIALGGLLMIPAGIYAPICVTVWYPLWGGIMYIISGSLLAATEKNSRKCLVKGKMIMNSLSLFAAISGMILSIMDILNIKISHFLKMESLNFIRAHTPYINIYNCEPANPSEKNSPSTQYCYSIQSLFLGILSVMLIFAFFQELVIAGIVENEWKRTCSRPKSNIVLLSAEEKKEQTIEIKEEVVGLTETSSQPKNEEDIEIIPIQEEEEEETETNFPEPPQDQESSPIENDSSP

Kd (human CD20 (human) [1]): 8.1 nM | % Lysis Daudi 0.001 µg/ml ADCC (human CD20 (human) [2]): 33% | % Lysis Daudi 1 µg/ml ADCC (human CD20 (human) [2]): 95% | % Lysis Raji 0.001 µg/ml ADCC (human CD20 (human) [2]): 16% | % Lysis Raji 1 µg/ml ADCC (human CD20 (human) [2]): 62% | % Lysis Ramos 0.001 µg/ml ADCC (human CD20 (human) [2]): 5% | % Lysis Ramos 1 µg/ml ADCC (human CD20 (human) [2]): 78% | EC50 Daudi CDC (human CD20 (human) [2]): 1.56 µg/mL | EC50 Raji CDC (human CD20 (human) [2]): 0.31 µg/mL | EC50 Ramos Apoptosis Alamar Blue (human CD20 (human) [2]): 0.222 µg/mL | EC50 Ramos Apoptosis Annexin V (human CD20 (human) [2]): 2.59 µg/mL | EC50 Ramos Apoptosis Cell Titer Glo (human CD20 (human) [2]): 0.576 µg/mL | EC50 Ramos Apoptosis WST-1 (human CD20 (human) [2]): 0.0326 µg/mL | EC50 Ramos CDC (human CD20 (human) [2]): 0.43 µg/mL
Substance: Rituxan (Rituximab), Genentech (antibody)
